# Experimental data from article PMC5001721, “Reconstitution of Protein Translation of Mycobacterium Reveals Functional Conservation and Divergence with the Gram-Negative Bacterium Escherichia coli” (PLoS ONE, 2016).
# T1: M. tuberculosis elongation factor Ts (EF-Ts) with an N-terminal 6xHis-tag and linker (M. tuberculosis, UniProt P9WNM1 1-271)
# T1 sequence: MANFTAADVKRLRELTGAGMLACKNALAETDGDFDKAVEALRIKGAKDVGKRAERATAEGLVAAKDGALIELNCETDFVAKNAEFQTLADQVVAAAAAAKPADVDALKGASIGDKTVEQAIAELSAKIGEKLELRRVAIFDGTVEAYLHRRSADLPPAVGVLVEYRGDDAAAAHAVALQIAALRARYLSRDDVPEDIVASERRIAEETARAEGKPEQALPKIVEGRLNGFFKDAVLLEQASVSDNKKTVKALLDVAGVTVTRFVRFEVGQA
# Target: T1, M. tuberculosis elongation factor Ts …
# Assay: affinity purification with mass spectrometry
# Conditions: partners not purified
binder,measurement,value
M. tuberculosis elongation factor Tu (EF-Tu) (natural protein) not shown,stoichiometry N,1
